Reference: patent US20080058263A1 (published 2008)
Residue numbers refer to the chain shown, from its start.

T1: VEGFR-3-Fc (UniProt P35916 25-328)
T1 construct: domain: first three Ig domains; conditioned supernatant of 293T cells; also called VEGFR-3-Fc fusion protein; not shown: Fc fragment of the pIg vector
T1 sequence (looked up): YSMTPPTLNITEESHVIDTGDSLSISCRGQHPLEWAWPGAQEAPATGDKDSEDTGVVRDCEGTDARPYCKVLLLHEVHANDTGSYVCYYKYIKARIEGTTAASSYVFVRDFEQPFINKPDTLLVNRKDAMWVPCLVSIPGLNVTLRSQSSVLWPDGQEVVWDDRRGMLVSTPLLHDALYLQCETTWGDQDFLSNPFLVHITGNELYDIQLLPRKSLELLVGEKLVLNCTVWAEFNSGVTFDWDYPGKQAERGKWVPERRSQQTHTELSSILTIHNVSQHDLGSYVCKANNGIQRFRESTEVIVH

B1: 61-9 (ligand)
chain: GQNHHEVVKFMDVYQRSYCHPREVCIDVGKEYPDEIEYIFKPSCVPLMRCGGCCNDEGLECVPTEESNITMQIMRITVPLSQGPKPVTISFLQHNKCECRPKKD
B2: 62-15 (ligand)
chain: GQNHHEVVKFMDVYQRSYCHPREVCIDVGKEFGVATNTFFKPPCVSVYRCGGCCNSEGLQCVPTEESNITMQIMRITVPLSQGPKPVTISFANHTSCRCMSKLD
B3: 61-11 (ligand)
chain: B1 chain with D56S, E60Q
B4: 64-15 (ligand)
chain: B2 chain with P43S, S46P, V47L, Y48M
B5: 63-13 (ligand)
chain: B2 chain with F32Y, G33P, V34D, A35E, T36I, N37E, T38Y, F39I, S56D, Q60E
B6: 63-11 (ligand)
chain: B1 chain with S43P, P46S, L47V, M48Y, D56S, E60Q
B7: 63-15 (ligand)
chain: B2 chain with F32Y, G33P, V34D, A35E, T36I, N37E, T38Y, F39I
B8: 64-13 (ligand)
chain: B2 chain with P43S, S46P, V47L, Y48M, S56D, Q60E
B9: 12-9 (ligand)
chain: GQNHHEVVKFMDVYQRSYCHPIETLVDIFQEFGVATNTFFKPPCVSVYRCGGCCNDEGLECVPTEESNITMQIMRITVPLSQGPKPVTISFLQHNKCECRPKKDLVFEQKLISEEDLNSAVDHHHHHH
B10: 12-11 (ligand)
chain: B9 chain with D56S, E60Q
notes: also called super-VEGF
B11: 12-15 (ligand)
chain: B9 chain with D56S, E60Q, L92A, Q93N, N95T, K96S, E98R, R100M, P101S, K103L
B12: 12-13 (ligand)
chain: B9 chain with L92A, Q93N, N95T, K96S, E98R, R100M, P101S, K103L, D104N
notes: clone acquired a point mutation, Asp to Asn at the last C-terminal amino acid of the hybrid
B13: 23-6 (ligand)
chain: AHYNTEILKSIDNEWRKTQCMPREVCIDVGKEYPDEIEYIFKPPCVSVYRCGGCCNDEGLECMNTSTSYLSKTLFEIKPHQGQHIGEMSFANHTSCRCMSKLD
B14: 23-4 (ligand)
chain: B13 chain with D57S, E61Q, A91L, N92Q, T94N, S95K, R97E, M99R, S100P, L102K
B15: 21-2 (ligand)
chain: AHYNTEILKSIDNEWRKTQCMPREVCIDVGKEYPDEIEYIFKPSCVPLMRCGGCCNDEGLECMNTSTSYLSKTLFEIKPHQGQHIGEMSFLQHNKCECRPKKD
B16: 21-6 (ligand)
chain: B13 chain with P44S, S47P, V48L, Y49M
B17: 53-8 (ligand)
chain: B13 chain with R23I, V25T, C26L, I27V, V29I, G30F, K31Q, D57S, E61Q
B18: 21-8 (ligand)
chain: B13 chain with P44S, S47P, V48L, Y49M, D57S, E61Q
B19: 24-6 (ligand)
chain: AHYNTEILKSIDNEWRKTQCMPREVCIDVGKEFGVATNTFFKPSCVPLMRCGGCCNDEGLECMNTSTSYLSKTLFEIKPHQGQHIGEMSFANHTSCRCMSKLD
B20: 23-2 (ligand)
chain: B15 chain with S44P, P47S, L48V, M49Y
B21: 73-8 (ligand)
chain: B13 chain with A1G, H2Q, Y3N, N4H, T5H, I7V, L8V, D57S, E61Q
B22: 22-6 (ligand)
chain: B19 chain with S44P, P47S, L48V, M49Y
B23: 22-8 (ligand)
chain: B19 chain with S44P, P47S, L48V, M49Y, D57S, E61Q
B24: 73-6 (ligand)
chain: B13 chain with A1G, H2Q, Y3N, N4H, T5H, I7V, L8V
B25: 71-6 (ligand)
chain: GQNHHEVVKSIDNEWRKTQCMPREVCIDVGKEYPDEIEYIFKPSCVPLMRCGGCCNDEGLECMNTSTSYLSKTLFEIKPHQGQHIGEMSFANHTSCRCMSKLD
B26: 51-6 (ligand)
chain: AHYNTEILKSIDNEWRKTQCMPIETLVDIFQEYPDEIEYIFKPSCVPLMRCGGCCNDEGLECMNTSTSYLSKTLFEIKPHQGQHIGEMSFANHTSCRCMSKLD
B27: 53-6 (ligand)
chain: B26 chain with S44P, P47S, L48V, M49Y
B28: 23-8 (ligand)
chain: B13 chain with D57S, E61Q
B29: 12-14 (ligand)
chain: GQNHHEVVKFMDVYQRSYCHPIETLVDIFQEFGVATNTFFKPPCVSVYRCGGCCNDEGLECMNTSTSYLSKTLFEITVPLSQGPKPVTISFANHTSCRCMSKLDL
B30: 12-3 (ligand)
chain: GQNHHEVVKFMDVYQRSYCHPIETLVDIFQEFGVATNTFFKPPCVSVYRCGGCCNSEGLQCVPTEESNITMQIMRIKPHQGQHIGEMSFLQHNKCECRPKKDLVFEQKLISEEDLNSAVDHHHHHH
B31: 12-7 (ligand)
chain: B30 chain with L90A, Q91N, N93T, K94S, E96R, R98M, P99S, K101L
notes: also called super-VEGF

biological target: T2, VEGFR-1-Fc (UniProt P17948 27-338); experiment: receptor-Fc IP
T2 construct: domain: first three Ig domains; expressed in Drosophila S2 cells, purified on Protein A sepharose; also called VEGFR-1-Fc fusion protein; not shown: Fc fragment from the Signal-pIgPlus vector
T2 sequence (P17948 27-338): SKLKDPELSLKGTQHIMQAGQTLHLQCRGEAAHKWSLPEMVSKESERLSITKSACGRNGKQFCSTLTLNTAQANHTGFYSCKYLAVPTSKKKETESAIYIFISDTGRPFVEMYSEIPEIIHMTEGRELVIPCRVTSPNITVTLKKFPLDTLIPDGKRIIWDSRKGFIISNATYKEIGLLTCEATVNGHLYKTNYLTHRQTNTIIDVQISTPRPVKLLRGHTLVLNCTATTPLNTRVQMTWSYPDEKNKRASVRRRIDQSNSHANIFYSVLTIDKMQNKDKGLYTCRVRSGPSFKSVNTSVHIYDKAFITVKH
Procedure, shortened: (§1)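 fusion protein at 400 ng/ml in an IP mix (PBS, 1.5% BSA, 0.06% Tween 20, 3 μg/ml heparin) was combined with sample supernatant at a 1:2 ratio. Bound ligand captured by immunoprecipitation with pentahistidine antibody.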

Row | Binder | binding result
1 | B1 | no binding
2 | B2 | no binding
3 | B3 | no binding
4 | B4 | no binding
5 | B5 | no binding
6 | B6 | no binding
7 | B7 | no binding
8 | B8 | no binding
9 | B9 | binds
10 | B10 | binds
11 | B11 | no binding
12 | B12 | binds
13 | B13 | no binding
14 | B14 | no binding
15 | B15 | no binding
16 | B16 | no binding

Row | Binder | binding result
17 | B17 | no binding
18 | B18 | no binding
19 | B19 | no binding
20 | B20 | no binding
21 | B21 | no binding
22 | B22 | no binding
23 | B23 | no binding
24 | B24 | no binding
25 | B25 | no binding
26 | B26 | no binding
27 | B27 | no binding
28 | B28 | no binding
29 | B29 | no binding
30 | B30 | binds
31 | B31 | binds

biological target: T1, VEGFR-3-Fc; experiment: receptor-Fc IP
Procedure, shortened: as §1

Row | Binder | binding result
32 | B1 | no binding
33 | B2 | no binding
34 | B3 | no binding
35 | B4 | no binding
36 | B5 | no binding
37 | B6 | no binding
38 | B7 | no binding
39 | B8 | no binding
40 | B9 | binds
41 | B10 | binds
42 | B11 | binds
43 | B12 | binds
44 | B13 | no binding
45 | B14 | no binding
46 | B15 | no binding
47 | B16 | no binding

Row | Binder | binding result
48 | B17 | no binding
49 | B18 | no binding
50 | B19 | no binding
51 | B20 | no binding
52 | B21 | no binding
53 | B22 | binds
54 | B23 | binds
55 | B24 | no binding
56 | B25 | no binding
57 | B26 | no binding
58 | B27 | no binding
59 | B28 | no binding
60 | B29 | binds
61 | B30 | no binding
62 | B31 | binds

biological target: T3, VEGFR-2-Fc (UniProt P35968 20-322); experiment: receptor-Fc IP
T3 construct: domain: first 3 Ig domains; conditioned supernatant of 293T cells; also called VEGFR-2-Fc fusion protein; not shown: Fc fragment of the pIg vector
T3 sequence (P35968 20-322): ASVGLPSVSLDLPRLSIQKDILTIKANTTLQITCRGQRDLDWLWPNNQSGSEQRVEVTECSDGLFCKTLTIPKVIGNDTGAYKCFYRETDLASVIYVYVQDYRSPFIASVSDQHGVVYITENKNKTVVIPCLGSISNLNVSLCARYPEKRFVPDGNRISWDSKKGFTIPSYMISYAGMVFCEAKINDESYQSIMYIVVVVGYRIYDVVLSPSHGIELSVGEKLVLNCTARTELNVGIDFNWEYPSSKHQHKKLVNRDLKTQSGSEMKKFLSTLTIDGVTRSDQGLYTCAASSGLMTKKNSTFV
Procedure, shortened: as §1

Row | Binder | binding result
63 | B1 | no binding
64 | B2 | no binding
65 | B3 | no binding
66 | B4 | no binding
67 | B5 | no binding
68 | B6 | no binding
69 | B7 | no binding
70 | B8 | no binding
71 | B9 | no binding
72 | B10 | binds
73 | B11 | binds
74 | B12 | no binding
75 | B13 | no binding
76 | B14 | no binding
77 | B15 | no binding
78 | B16 | no binding

Row | Binder | binding result
79 | B17 | no binding
80 | B18 | no binding
81 | B19 | no binding
82 | B20 | no binding
83 | B21 | no binding
84 | B22 | binds
85 | B23 | binds
86 | B24 | no binding
87 | B25 | no binding
88 | B26 | no binding
89 | B27 | no binding
90 | B28 | no binding
91 | B29 | no binding
92 | B30 | binds
93 | B31 | binds
